# B1: 14-3-3ε: 14-3-3 polypeptide ε isoform, overexpressed from expression vector (protein, UniProt P62258 1-255, looked up)
# 14-3-3 protein epsilon: MDDREDLVYQAKLAEQAERYDEMVESMKKVAGMDVELTVEERNLLSVAYKNVIGARRASWRIISSIEQKEENKGGEDKLKMIREYRQMVETELKLICCDILDVLDKHLIPAANTGESKVFYYKMKGDYHRYLAEFATGNDRKEAAENSLVAYKAASDIAMTELPPTHPIRLGLALNFSVFYYEILNSPDRACRLAKAAFDDAIAELDTLSEESYKDSTLIMQLLRDNLTLWTSDMQGDGEEQNKEALQDVEDENQ
# B2: 14-3-3θ: 14-3-3 polypeptide θ isoform, overexpressed from V5/His-tagged pcDNA3.1 vector (or as transgene in C. elegans) (protein, UniProt P27348 1-245, looked up)
# 14-3-3 protein theta: MEKTELIQKAKLAEQAERYDDMATCMKAVTEQGAELSNEERNLLSVAYKNVVGGRRSAWRVISSIEQKTDTSDKKLQLIKDYREKVESELRSICTTVLELLDKYLIANATNPESKVFYLKMKGDYFRYLAEVACGDDRKQTIDNSQGAYQEAFDISKKEMQPTHPIRLGLALNFSVFYYEILNNPELACTLAKTAFDEAIAELDTLNEDSYKDSTLIMQLLRDNLTLWTSDSAGEECDAAEGAEN
# modifications: V5/His tag
# B3: 14-3-3ζ: 14-3-3 polypeptide ζ isoform, overexpressed from expression vector (protein, UniProt P63104 1-245, looked up)
# 14-3-3 protein zeta/delta: MDKNELVQKAKLAEQAERYDDMAACMKSVTEQGAELSNEERNLLSVAYKNVVGARRSSWRVVSSIEQKTEGAEKKQQMAREYREKIETELRDICNDVLSLLEKFLIPNASQAESKVFYLKMKGDYYRYLAEVAAGDDKKGIVDQSQQAYQEAFEISKKEMQPTHPIRLGLALNFSVFYYEILNSPEKACSLAKTAFDEAIAELDTLSEESYKDSTLIMQLLRDNLTLWTSDTQGDEAEAGEGGEN
# Tests used:
# [1] = system: H4 cells; assay: α-syn aggregation assay (synT + synphilin co-transfection); type: cell-based; settings: isoform co-transfected with synT and synphilin; 24 hours after transfection; vs empty vector
# Protocol: H4 cells were cotransfected with either empty vector or a 14-3-3 isoform along with synT and synphilin. 24 hours after transfection, cells were fixed and stained with a monoclonal antibody against α-syn. Cells that stained for α-syn were scored as positive or negative for α-syn aggregates, with the rater blind to experimental condition. Results reflect three independent experiments with four replicates per experiment. ***p<0.001 (Bonferroni's multiple comparison test).
# To evaluate this hypothesis the effect of increased 14-3-3 polypeptide expression on α-syn aggregation was evaluated. In this experiment, the model of McLean et al., in which α-syn/green fluorescent protein (GFP) fusion protein (synT) forms visible aggregates in cells when expressed with synphilin (McLean, P J et al., Neuroscience, 104:901-12, 2001) was used. This system has been used to evaluate the effect of different polypeptides on α-syn aggregation (Kiucken, J., et al, J Biol Chem, 279:4625-31, 2004). Briefly, H4 cells were co-transfected with either empty vector or a vector containing nucleic acid encoding a 14-3-3 isoform, along with synT and synphilin. Twenty-four hours after transfection, cells were fixed and stained with a monoclonal antibody against α-syn. Results are shown in FIG. 3 and reflect three independent experiments with 4 replicates per experiment. […] These are the same 14-3-3 isoforms that were decreased in α-syn transgenic mice (see FIG. 2).
# Primers against each of the human 14-3-3 isoforms were designed using Primer3. […] All cells stained for α-syn were scored as positive or negative for α-syn aggregates, with the rater blind to experimental condition. • α-syn toxicity assay H4 cells were transfected with α-syn and either empty vector control or a 14-3-3 isoform using Superfect transfection reagent (Qiagen). 24 hours after transfection, toxicity was measured by the amount of adenylate kinase released into the media using the ToxiLight™ kit (Cambrex). • Creation of stable cell lines Each 14-3-3 isoform was subcloned into the mammalian expression vector mcDNA3.1/V5-His (Invitrogen). […]
# [2] = system: SK-N-BE(2)-M17 (M17) cells; assay: Rotenone toxicity in stably transfected cell lines, LDH release; type: cell-based; settings: for rotenone-induced cell death, % of that in control cells: 1 μM rotenone, LDH release; for rotenone-induced cell death, % of that in control cells / protection against rotenone toxicity (LDH release): 48 hours; for protection against rotenone toxicity (LDH release): rotenone at varying concentrations
# Protocol: Cell lines stably-transfected with either 14-3-3θ or empty vector were treated with varying concentrations of rotenone (0-25 μM) for 24 hours (FIG. 6A), 30 hours (FIG. 6B), or 48 hours (FIG. 6C). Cell death was assayed by LDH release into the culture media. LDH release into media was normalized to total LDH release for each well. […] Rater was blind to experimental condition. n=8 for each experimental condition. *p<0.05, ***p<0.001 (Bonferroni's multiple comparison test).
# M17 cell lines stably-transfected with either a 14-3-3 isoform or empty vector were treated with varying concentrations of rotenone (0-25 μM) for 48 hours. Cell death was assayed by LDH release into the culture media. LDH release into media was normalized to total LDH release for each well. […] Results reflect two to three independent experiments with at least two replicates per experiment. *p<0.05, **p<0.01, ***p<0.001 (Bonferroni's multiple comparison test).
# Additional studies were performed to evaluate the effect of 14-3-3 polypeptide isoforms in mammalian cells. In these studies, cDNA clones for the 14-3-3 polypeptide β, γ, ε, η, θ, and σ isoforms were subcloned into the mammalian expression vector pcDNA 3.1/V5/His (Invitrogen). The polypeptide expressed from this vector contains the particular 14-3-3 isoform with a V5 and a His6 tag at the C-terminal end. […] SK-N-BE(2)-M17 (M17) cells, a dopaminergic-producing human neuroblastoma cell line, were transfected with each isoform or empty vector using Superfect, and stably-transfected cells were selected for in the presence of G418.
# The M17 14-3-3θ clones were examined for their resistance to rotenone (0-25 μM). M17 cell lines stably transfected with either 14-3-3θ or empty vector were treated with rotenone for 24 (FIG. 6A), 30 (FIG. 6B) or 48 hours (FIG. 6C). Cell death was assayed by […] (LDH) release into the culture media using the LDH assay kit from Roche. LDH release into media was normalized to total LDH release for each well. Results reflect three independent experiments with at least two replicates per experiment.
# Stable M17 cell lines overexpressing these other isoforms were treated with rotenone at varying concentrations, and then cell death was assayed at 48 hours by LDH release. […]
Molecule,decrease in the number of H4 cells displaying α-syn aggregates [1],"rotenone-induced cell death, % of that in control cells ([2]; stable overexpression)",protection against rotenone toxicity (LDH release) ([2]; stable overexpression),protection against rotenone at low doses ([2]; 0.04 and 0.2 μM rotenone),protection against rotenone at higher doses ([2]; 1 and 5 μM rotenone),"resistance to rotenone toxicity compared to control cells (LDH release) ([2]; stable overexpression, rotenone 0-25 μM, 24, 30 or 48 hours)"
"14-3-3γ: 14-3-3 polypeptide γ isoform, overexpressed from expression vector",40%,55%,prominent reduction in rotenone-induced toxicity,,,
B1,40%,65%,prominent reduction in rotenone-induced toxicity,,,
B2,40%,45%,,Mild protection,more prominent protection,more resistant to rotenone toxicity
B3,,78%,some protection,,,

# Source: patent US7919262B2, “14-3-3 proteins for diagnosis of Parkinson's disease” (The UAB Research Foundation, priority 2007, dated 2011)
